Consider 37 molecules from patent US20260209386A1 (MYTHIC THERAPEUTICS, published 2026).

Numbering of substitutions follows the chain as printed.

In assay [1] the target is T1, Human PTK7 Protein, His Tag (Acro Biosystems) (human, UniProt Q13308 31-704).
T1 construct: Bought His-tagged recombinant human PTK7; also called CCK4; Tyrosine-protein kinase-like 7
T1 sequence: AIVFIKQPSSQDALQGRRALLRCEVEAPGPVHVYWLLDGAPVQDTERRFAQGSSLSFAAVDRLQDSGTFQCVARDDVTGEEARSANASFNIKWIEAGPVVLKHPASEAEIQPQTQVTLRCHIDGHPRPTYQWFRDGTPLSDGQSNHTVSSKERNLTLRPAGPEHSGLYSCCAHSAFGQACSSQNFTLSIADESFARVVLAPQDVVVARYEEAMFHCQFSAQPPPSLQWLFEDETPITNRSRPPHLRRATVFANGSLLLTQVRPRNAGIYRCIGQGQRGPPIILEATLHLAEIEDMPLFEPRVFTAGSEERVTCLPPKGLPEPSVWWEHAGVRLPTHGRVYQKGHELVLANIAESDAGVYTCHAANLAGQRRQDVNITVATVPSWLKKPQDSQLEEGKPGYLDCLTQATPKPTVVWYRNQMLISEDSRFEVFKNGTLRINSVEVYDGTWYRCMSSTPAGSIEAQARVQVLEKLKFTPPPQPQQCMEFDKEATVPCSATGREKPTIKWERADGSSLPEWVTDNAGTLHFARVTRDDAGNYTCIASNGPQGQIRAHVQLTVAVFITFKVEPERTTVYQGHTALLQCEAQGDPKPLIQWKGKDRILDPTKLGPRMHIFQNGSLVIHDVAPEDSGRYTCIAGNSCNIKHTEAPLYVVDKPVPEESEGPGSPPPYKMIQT
Nature of the assay: BLI (Octet), antibody on anti-human Fc sensor, 50 nM PTK7; 1 = pH dependent binding.

Assay [2] addresses T2, Human PTK7 Protein, His Tag, Acro Biosystems (human, UniProt Q13308 31-704).
T2 construct: Bought recombinant protein; also called CCK4; not shown: His tag
T2 sequence: T1 sequence
Kind of assay: BLI (Octet), antibody on anti-human Fc sensor, 50 nM PTK7 at pH 7.4, dissociation at pH 7.4 or 5.4; 1 = pH dependent binding relative to parent.

B1: MYT11000 (antibody, V domains shown)
VH: EVQLVESGGGLVQPGGSLRLSCTASGFSLSSYAMGWVRQAPGKGLEWVGFINAGGNTYYANWAKGRFTISRDTSKNTVYLQMNSLRAEDTAVYFCARRYSRASGWYDLWGQGTLVTVSS
VL: EIVMTQSPSTLSASVGDRVIITCQASQSISSHLAWYQQKPGKAPKLLIYAASTLASGVPSRFSGSGSGAEFTLTISSLQPDDFATYYCQSYSYSSGIDYGDVFGQGTKLTVL
notes: MYT9359 LC variant; captured on anti-human Fc sensor
Take B1: the binding result in assay [1] is listed as “binds”.

B2: MYT11023 (antibody, V domains shown)
VH: B1 VH
VL: B1 VL with H32Y, V102H
notes: as for B1
As for B2, in assay [1], the binding result was “binds”.

B3: MYT11010 (antibody, V domains shown)
VH: B1 VH
VL: B1 VL with H32Y, Q89H
notes: as for B1
As for B3, in assay [1], the binding result is “binds”.

B4: MYT11026 (antibody, V domains shown)
VH: B1 VH
VL: B1 VL with H32Y, D101A
notes: MYT9359 LC alanine variant; captured on anti-human Fc sensor
With B4, the binding result in assay [1] was “binds”.

B5: MYT11013 (antibody, V domains shown)
VH: B1 VH
VL: B1 VL with H32Y, S92H
notes: as for B1
Take B5: in assay [1], the binding result is listed as “binds”.

B6: MYT11018 (antibody, V domains shown)
VH: B1 VH
VL: B1 VL with H32Y, I97H
notes: as for B1
Take B6: the binding result in assay [1] was “binds”.

B7: MYT11004 (antibody, V domains shown)
VH: B1 VH
VL: B1 VL with H32Y, A51H
notes: as for B1
B7: the binding result in assay [1] was “binds”.

B8: MYT11025 (antibody, V domains shown)
VH: B1 VH
VL: B1 VL with H32Y, D98A
notes: as for B4
For the molecule B8, the binding result in assay [1] is reported as “binds”.

B9: MYT11006 (antibody, V domains shown)
VH: B1 VH
VL: B1 VL with H32Y, T53H
notes: as for B1
B9: the binding result in assay [1] is reported as “binds”.

B10: MYT11001 (antibody, V domains shown)
VH: B1 VH
VL: B1 VL with H32Y, L33H
notes: as for B1
Turning to B10, in assay [1], the binding result is reported as “binds”.

B11: MYT11021 (antibody, V domains shown)
VH: B1 VH
VL: B1 VL with H32Y, G100H
notes: as for B1
For the molecule B11, in assay [1], the binding result was “binds”.

B12: MYT11014 (antibody, V domains shown)
VH: B1 VH
VL: B1 VL with H32Y, Y93H
notes: as for B1
Turning to B12, the binding result in assay [1] is “binds”.

B13: MYT11012 (antibody, V domains shown)
VH: B1 VH
VL: B1 VL with H32Y, Y91H
notes: as for B1
With B13, the binding result in assay [1] is on record as “binds”.

B14: MYT11003 (antibody, V domains shown)
VH: B1 VH
VL: B1 VL with H32Y, A50H
notes: as for B1
With B14, the binding result in assay [1] is on record as “binds”.

B15: MYT10897 (antibody, V domains shown)
VH: EVQLVESGGGLVQPGGSLRLSCTASGFSLSNYVMNWVRQAPGKGLEWVGIIHSSGSTYYASWAKGRFTISRDTSKNTVYLQMNSLRAEDTAVYFCARGLYLWGQGTLVTVSS
VL: EIVMTQSPSTLSASVGDRVIITCQSSQSVYNNNLLAWYQQKPGKAPKLLIYYTSNLASGVPSRFSGSGSGAEFTLTISSLQPDDFATYYCQGGYNGNIYAFGQGTKLTVL
notes: MYT9345 variant, substitution at VH pos 52 (H2 03), no Ala mark
As to B15, the binding result in assay [2] is given as “binds”.

B16: MYT10939 (antibody, V domains shown)
VH: B15 VH with H52D
VL: B15 VL with Q91H
notes: MYT9345 variant, His at VL pos 91 (L3 01)
B16: in assay [2], the binding result was “binds”.

B17: MYT10898 (antibody, V domains shown)
VH: B15 VH with H52D, S53H
VL: B15 VL
notes: MYT9345 variant, His at VH pos 53 (H2 04)
For B17, in assay [2], the binding result is on record as “binds”.

B18: MYT10927 (antibody, V domains shown)
VH: B15 VH with H52D
VL: B15 VL with N32H
notes: MYT9345 variant, His at VL pos 32 (L1 09)
Turning to B18, in assay [2], the binding result is “binds”.

B19: MYT10936 (antibody, V domains shown)
VH: B15 VH with H52D
VL: B15 VL with L56H
notes: MYT9345 variant, His at VL pos 56 (L2 05)
Take B19: in assay [2], the binding result was “binds”.

B20: MYT10895 (antibody, V domains shown)
VH: B15 VH with I50H, H52D
VL: B15 VL
notes: MYT9345 variant, His at VH pos 50 (H2 01)
Turning to B20, the binding result in assay [2] is recorded as “binds”.

B21: MYT10928 (antibody, V domains shown)
VH: B15 VH with H52D
VL: B15 VL with N33H
notes: MYT9345 variant, His at VL pos 33 (L1 10)
With B21, in assay [2], the binding result is reported as “binds”.

B22: MYT10930 (antibody, V domains shown)
VH: B15 VH with H52D
VL: B15 VL with L35H
notes: MYT9345 variant, His at VL pos 35 (L1 12)
Turning to B22, the binding result in assay [2] is “binds”.

B23: MYT10935 (antibody, V domains shown)
VH: B15 VH with H52D
VL: B15 VL with N55H
notes: MYT9345 variant, His at VL pos 55 (L2 04)
B23: the binding result in assay [2] is given as “binds”.

B24: MYT10916 (antibody, V domains shown)
VH: B15 VH with H52D, L101H
VL: B15 VL
notes: MYT9345 variant, His at VH pos 101 (H3 06)
In the case of B24, the binding result in assay [2] was “binds”.

B25: MYT10891 (antibody, V domains shown)
VH: B15 VH with Y32H, H52D
VL: B15 VL
notes: MYT9345 variant, His at VH pos 32 (H1 07)
On to B25, for which the binding result in assay [2] is on record as “binds”.

B26: MYT10920 (antibody, V domains shown)
VH: B15 VH with H52D
VL: B15 VL with S25H
notes: MYT9345 variant, His at VL pos 25 (L1 02)
Regarding B26, the binding result in assay [2] was “binds”.

B27: MYT10905 (antibody, V domains shown)
VH: B15 VH with H52D, A60H
VL: B15 VL
notes: MYT9345 variant, His at VH pos 60 (H2 11)
B27: the binding result in assay [2] was “binds”.

B28: MYT10889 (antibody, V domains shown)
VH: B15 VH with S30H, H52D
VL: B15 VL
notes: MYT9345 variant, His at VH pos 30 (H1 05)
Turning to B28, the binding result in assay [2] was “binds”.

B29: MYT10937 (antibody, V domains shown)
VH: B15 VH with H52D
VL: B15 VL with A57H
notes: MYT9345 variant, His at VL pos 57 (L2 06)
With B29, the binding result in assay [2] is recorded as “binds”.

B30: MYT10903 (antibody, V domains shown)
VH: B15 VH with H52D, Y58H
VL: B15 VL
notes: MYT9345 variant, His at VH pos 58 (H2 09)
In the case of B30, the binding result in assay [2] is listed as “binds”.

B31: MYT10896 (antibody, V domains shown)
VH: B15 VH with I51H, H52D
VL: B15 VL
notes: MYT9345 variant, His at VH pos 51 (H2 02)
Turning to B31, the binding result in assay [2] is listed as “binds”.

B32: MYT10911 (antibody, V domains shown)
VH: B15 VH with H52D, A96H
VL: B15 VL
notes: MYT9345 variant, His at VH pos 96 (H3 01)
As for B32, the binding result in assay [2] is on record as “binds”.

B33: MYT10926 (antibody, V domains shown)
VH: B15 VH with H52D
VL: B15 VL with N31H
notes: MYT9345 variant, His at VL pos 31 (L1 08)
For the molecule B33, in assay [2], the binding result was “binds”.

B34: MYT10918 (antibody, V domains shown)
VH: B15 VH with H52A
VL: B15 VL
notes: MYT9345 variant, Ala at VH pos 52 (H2 03)
With B34, the binding result in assay [2] was “binds”.

B35: MYT10888 (antibody, V domains shown)
VH: B15 VH with L29H, H52D
VL: B15 VL
notes: MYT9345 variant, His at VH pos 29 (H1 04)
On to B35, for which the binding result in assay [2] is listed as “binds”.

B36: MYT10925 (antibody, V domains shown)
VH: B15 VH with H52D
VL: B15 VL with Y30H
notes: MYT9345 variant, His at VL pos 30 (L1 07)
Turning to B36, the binding result in assay [2] is given as “binds”.

B37: MYT10942 (antibody, V domains shown)
VH: B15 VH with H52D
VL: B15 VL with Y94H
notes: MYT9345 variant, His at VL pos 94 (L3 04)
As for B37, in assay [2], the binding result is “binds”.
